According to US4388232A, “Method of producing plasma fractions free of side-effects using fast-reacting antithrombin” (Immuno Aktiengesellschaft fur Chemisch Medizinische Produkte, priority 1979, dated 1983):

System: NMRI mice
Experiment: LD50 test (toxicity of a preparation)
Format: in vivo, mouse (NMRI)
Settings: intravenous
Procedure: The LD50 -test serves for determining the toxicity of a preparation. LD50 is the dose at which 50% of the animals die under experimental conditions. The preparation is intravenously injected in at least three dosages into ten NMRI ([…]) mice each, having a minimum body weight of 20 g. After an observation time of 7 days the living animals per dosage group are counted. The LD50 is calculated in accordance with Wilson and Worcester, Proc. Nat. Acad. Sci. U.S.A. 29, 114 (1943).

Example 11: C1-esterase inhibitor, prepared with antithrombin III and heparin
tolerance in LD50 test (7 days observation): excellently tolerated | LD50 (7 days observation, 5,300 = maximum injectable amount C1-esterase-inhibitor): > 5,300 units per kg body weight
